The values below come from paper PMC4546533.

In assay [1] the target is MmpL3-D1 (MmpL3 residues 32 – 187) (Mycobacterium tuberculosis) (UniProt P9WJV5). Briefly: BLI. A general note: BLI is a label-free optical method that tracks binding on a fibre tip over time.
The target of assay [2] is MmpL11-D1 (MmpL11 residues 41 – 187) (Mycobacterium tuberculosis) (UniProt P9WJT9). Briefly: BLI.
Sequence of UniProt P9WJT9 (P9WJT9 41-187): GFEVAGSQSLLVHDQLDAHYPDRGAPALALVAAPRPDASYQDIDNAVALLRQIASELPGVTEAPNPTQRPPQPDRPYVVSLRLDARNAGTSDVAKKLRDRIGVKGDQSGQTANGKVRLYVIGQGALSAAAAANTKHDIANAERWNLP

Sequence of UniProt P9WJV5 (P9WJV5 32-187): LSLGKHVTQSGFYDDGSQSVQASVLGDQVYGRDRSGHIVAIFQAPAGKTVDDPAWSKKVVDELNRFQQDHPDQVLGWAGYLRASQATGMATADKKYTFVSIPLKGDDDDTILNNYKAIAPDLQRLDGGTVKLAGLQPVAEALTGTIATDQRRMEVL

By Kd is commonly meant a measure of binding affinity in units of concentration. Low readings indicate a tighter complex, high ones a looser complex. Substance “MmpL3-D2 (MmpL3 residues 419 – 560) (from UniProt P9WJV5 419-560) (domain or fragment)” had a dissociation constant (Kd) in assay [1] of 4.1 µM.

In assay [2], “MmpL11-D2 (MmpL11 residues 390 – 529) (from UniProt P9WJT9 390-529) (domain or fragment)” gave a Kd of 4.5 µM.
